The values below come from IntAct's records for PubMed 16014621.

B1: Septum site-determining protein minD homolog, chloroplastic (Arabidopsis thaliana (Mouse-ear cress)), Q9MBA2 (parent)
chain: MASLRLFSTNHQSLLLPSSLSQKTLISSPRFVNNPSRRSPIRSVLQFNRKPELAGETPRIVVITSGKGGVGKTTTTANVGLSLARYGFSVVAIDADLGLRNLDLLLGLENRVNYTCVEVINGDCRLDQALVRDKRWSNFELLCISKPRSKLPMGFGGKALEWLVDALKTRPEGSPDFIIIDCPAGIDAGFITAITPANEAVLVTTPDITALRDADRVTGLLECDGIRDIKMIVNRVRTDMIKGEDMMSVLDVQEMLGLSLLGVIPEDSEVIRSTNRGFPLVLNKPPTLAGLAFEQAAWRLVEQDSMKAVMVEEEPKKRGFFSFFGG
partner: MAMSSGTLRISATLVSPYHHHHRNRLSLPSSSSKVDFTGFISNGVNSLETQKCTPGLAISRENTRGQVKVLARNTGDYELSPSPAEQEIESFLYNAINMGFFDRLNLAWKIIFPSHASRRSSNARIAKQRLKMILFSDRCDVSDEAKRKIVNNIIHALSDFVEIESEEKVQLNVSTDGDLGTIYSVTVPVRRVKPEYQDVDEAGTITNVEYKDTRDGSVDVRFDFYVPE

Variants of B1 are the subject of this experiment. The note with it: with mine1_arath MINE1, Q9C4Z7.
Take MASLRLFSTNHQSLLLPSSLSQKTLISSPRFVNNPSRRSPIRSVLQFNRKPELAGETPRIVVITSGKGGVGATTTTANVGLSLARYGFSVVAIDADLGLRNLDLLLGLENRVNYTCVEVINGDCRLDQALVRDKRWSNFELLCISKPRSKLPMGFGGKALEWLVDALKTRPEGSPDFIIIDCPAGIDAGFITAITPANEAVLVTTPDITALRDADRVTGLLECDGIRDIKMIVNRVRTDMIKGEDMMSVLDVQEMLGLSLLGVIPEDSEVIRSTNRGFPLVLNKPPTLAGLAFEQAAWRLVEQDSMKAVMVEEEPKKRGFFSFFGG [K72A]: the “effect of a mutation on the interaction” value was “decreasing interaction”.
